From paper PMC11754652

Target: T1, RheA (RheASal) (Streptomyces albidoflavus J1074) (UniProt O08247)
T1 sequence: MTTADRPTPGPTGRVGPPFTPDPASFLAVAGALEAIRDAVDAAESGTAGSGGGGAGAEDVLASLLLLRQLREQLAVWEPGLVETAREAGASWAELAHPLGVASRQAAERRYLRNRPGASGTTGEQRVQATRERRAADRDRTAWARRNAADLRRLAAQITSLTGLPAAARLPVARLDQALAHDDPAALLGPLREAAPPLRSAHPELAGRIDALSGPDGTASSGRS
Assay: EMSA
Conditions: 20 mM Tris-HCl pH 7.5, 1 mM DTT, 5 mM MgCl2, 0.5 mg/ml BSA, 5% glycerol, 20 uL, 30 C 25 min, 4.5% native PAGE in 45 mM Tris-HCl pH 8.0, 45 mM boric acid

In the case of “GAGTGAACACCTCCAGAAGTCCAGGCAGTTGATGCCATGCGCTTCGCTTGGCACCGTTGTAACATGTCATCCGAACGATGACAAGCGAGTCGTCGTCCATCGGATGACGACCCGGAGTGATATC (double strand) [RS01 probe (one rheO)]”, the binding is reported as “binds”.
